The results in this text go back to patent US20160060340A1 (Kyowa Kirin, published 2016).

Test [1] addresses T1, Rat2-FOLR1-mycHis (human with a rat segment).
T1 construct: also called rat/human chimeric FOLR1-mycHis (human 55-62 replaced by rat 53-60)
The test can be described thus: ELISA as in Example 35, antigen coated; x indicates that no reaction occurred. On the procedure:
(§1) First, each 50 μL/well of FOLR1-mycHis, Rat1-FOLR1-mycHis, Rat2-FOLR1-mycHis, and Rat4-FOLR1-mycHis which were prepared at a concentration of 10 μg/mL using PBS was […] in a 96-well plate for ELISA, and then incubated at 4° C. overnight. Each well was washed with PBS, and then 200 μL/well of 1% BSA/PBS was added at room temperature for 1 hour for blocking.
(§2) In the same manner as in Example 35, reactivities of ChRA15-7Acc antibody, MORAb-003 antibody, MOv18 antibody, and HuRA15-7CTAcc antibody were evaluated using FOLR1-mycHis prepared in Example 11 and Rat1-FOLR1-mycHis, Rat2-FOLR1-mycHis, Rat4-FOLR1-mycHis prepared in Example 34.
On the technique in general: ELISA stands for enzyme-linked immunosorbent assay.

Test [2] addresses T2, FOLR1-mycHis (human, UniProt P15328 25-233).
T2 construct: Secreted from CHO/DG44 cells, purified on Ni-NTA; Residues 1-233 include the native signal peptide; also called non-reducing FOLR1-mycHis; recombinant protein having myc and His tag at the C-terminus of FOLR1 (1-233 amino acids); not shown: myc and His tag at the C-terminus
Kind of test: SPR as in Example 29, antibody captured, FOLR1-mycHis as analyte, 1:1 binding model. Here is the method:
(§3) The affinities of ChRA15-7Acc antibody and MORAb-003 antibody for FOLR1 were measured by a surface plasmon resonance method. The measurement was carried out in the same manner as in Example 16, except that a Human Antibody Capture Kit (GE Healthcare) was immobilized onto the CM5 chip by amine coupling and FOLR1-mycHis prepared by five-step dilution (12.3, 37, 111, 333, 1000 ng/mL) was applied as an analyte.
In the same manner as in Example 29, affinity of HuRA15-7CTAcc antibody for FOLR1 was measured by the surface plasmon resonance method.

Test [3] has as its target T3, Rat4-FOLR1-mycHis (human with a rat segment).
T3 construct: also called rat/human chimeric FOLR1-mycHis (human 91-95 replaced by rat 89-93)
Kind of test: ELISA as in Example 35, antigen coated; white circle indicates that reaction occurred. On the procedure: as §1, §2

Test [4] addresses T4, cynomolgus monkey FOLR1 (on JTC-12 cells) (cynomolgus monkey, UniProt P15328 25-234 (human entry)).
T4 construct: Endogenous FOLR1 of the cynomolgus monkey kidney-derived cell line JTC-12; also called CyFOLR1
The test can be described thus: flow cytometry on cynomolgus monkey kidney-derived cell line JTC-12. On the procedure: Subsequently, the cells were seeded in a 96-well plate at a density of 2×10⁵ cells/well, followed by centrifugation at 1500 rpm for 1 minute. After the supernatant was discarded, 50 μL of RA15-7 culture supernatant was added to each well, and allowed to react at 4° C. for 30 minutes.
Cells were washed, and then Alexa488-labeled anti-rat IgG(H+L) polyclonal antibody (Invitrogen) diluted in 1% BSA/PBS was added thereto, and they were allowed to react at 4° C. for 30 minutes. The cells were washed again, and then suspended in 1% BSA/PBS, and fluorescent intensity was analyzed by flow cytometry.
In the same manner, the reactivity of the RA15-7 culture supernatant to cynomolgus monkey kidney-derived cell line JTC-12 (RCB1485, RIKEN CELL BANK) was also analyzed by flow cytometry.
On the technique in general: In flow cytometry, cells or beads pass a laser one at a time.

Test [5] has as its target T5, cynomolgus monkey FOLR1-Fc (cynomolgus monkey; human).
T5 construct: Expressed in CHO/Ms704 cells; also called CyFOLR1-Fc; not shown: Human IgG1 Fc (Hinge region and CH2-CH3 region) from pKANTEX93, added to the C-terminus
Kind of test: ELISA: antibody captured by anti-rat IgG, Fc fusion added, anti-human IgG-POD. On the procedure: Each well was washed with PBS, and then 100 μL/well of 1% BSA/PBS was added at room temperature for 1 hour for blocking. Each well was washed with PBS again, and 50 μL/well of the RA15-7 culture supernatant was added, and allowed to react at room temperature for 1 hour. Each well was washed with 0.05% tween20/PBS, and 50 μL/well of FOLR1-Fc, FOLR2-Fc, FOLR3-Fc, and cynomolgus monkey FOLR1-Fc which were diluted in 1% BSA/PBS were added, and allowed to react at room temperature for 1 hour.
Each well was washed with 0.05% tween20/PBS, and then 50 μL/well of Goat anti-human IgG(H+L)-POD (American Qualex) which was diluted 2000-fold in 1% BSA/PBS was added and allowed to react at room temperature for 1 hour. Each well was washed with PBS, and then 50 μL/well of ABTS substrate solution was added, and allowed to react at room temperature. After sufficient color development was confirmed, 50 μL/well of 5% SDS solution was added to terminate the reaction, and absorbance at 415 nm was measured.

For test [6], the target named is T2, FOLR1-mycHis. Kind of test: SPR (Biacore T100), antibody of the supernatant captured on CM5 chip, FOLR1-mycHis as analyte, single-cycle kinetics, 1:1 binding model. An excerpt: After cloning, the hybridoma culture supernatant was used to measure its affinity for FOLR1 by a surface plasmon resonance method. As instruments for measurement, Biacore T100 (GE Healthcare), and CM5 chip (GE Healthcare) were used. First, Mouse Antibody Capture Kit (GE Healthcare) was immobilized onto the CM5 chip by amine coupling.
Subsequently, the hybridoma culture supernatant was applied using HBS-EP+buffer (GE Healthcare), and the antibodies contained in the supernatant were captured on the CM5 chip. Subsequently, FOLR1-mycHis prepared by five-step dilution (188, 375, 750, 1500, 3000 ng/mL) was applied as an analyte.
(§4) The affinity was analyzed from association constant (Ka) and dissociation constant (Kd) by Single-cycle kinetics. Kinetic constants (ka, kd, KD) were calculated by 1:1 binding model using a Biacore T-100 Evaluation software (GE Healthcare).
Background: SPR reads the build-up and loss of mass on a sensor chip optically.

In test [7] the target is T1, Rat2-FOLR1-mycHis. The test can be described thus: ELISA, antigen coated at 10 µg/mL; x indicates that no reaction occurred.
Test [8] concerns the target T3, Rat4-FOLR1-mycHis. Kind of test: ELISA, antigen coated at 10 µg/mL, antibody 14-10000 ng/mL; white circle indicates that reaction occurred. Here is the method:
as §1

Test [9] addresses T2, FOLR1-mycHis. The test can be described thus: SPR (Biacore T100), antibody captured with Human Antibody Capture Kit, FOLR1-mycHis as analyte, 1:1 binding model. Here is the method:
as §4, §3

T2 sequence (P15328 25-233): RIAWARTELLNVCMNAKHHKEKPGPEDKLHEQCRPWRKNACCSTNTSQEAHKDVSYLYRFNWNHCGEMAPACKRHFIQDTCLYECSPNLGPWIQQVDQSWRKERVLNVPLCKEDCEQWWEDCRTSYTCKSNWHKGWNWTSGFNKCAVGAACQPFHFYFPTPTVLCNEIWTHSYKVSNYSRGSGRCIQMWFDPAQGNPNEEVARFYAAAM
T3 sequence (chain, as listed by the source limits assumed): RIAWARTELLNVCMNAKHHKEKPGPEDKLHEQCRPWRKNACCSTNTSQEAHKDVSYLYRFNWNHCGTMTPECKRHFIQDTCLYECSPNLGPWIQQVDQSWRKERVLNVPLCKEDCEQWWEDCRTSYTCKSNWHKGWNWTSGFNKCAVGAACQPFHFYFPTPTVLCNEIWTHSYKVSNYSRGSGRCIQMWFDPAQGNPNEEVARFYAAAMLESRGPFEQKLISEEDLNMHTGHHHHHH
T1 sequence (chain, as listed by the source limits assumed): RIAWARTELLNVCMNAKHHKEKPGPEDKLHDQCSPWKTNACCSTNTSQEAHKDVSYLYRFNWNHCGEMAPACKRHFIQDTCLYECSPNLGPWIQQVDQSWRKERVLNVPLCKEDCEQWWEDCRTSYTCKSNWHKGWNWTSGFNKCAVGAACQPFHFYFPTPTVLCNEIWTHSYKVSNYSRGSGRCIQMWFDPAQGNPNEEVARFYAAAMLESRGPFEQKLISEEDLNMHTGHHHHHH
T5 sequence (chain, as listed by the source): as the sequence (P15328 25-233) above, with I2T, W4R, R37K, A146P, H171Y counted along it
T4 sequence (P15328 other isoform, or with tags, fused parts or gaps limits assumed): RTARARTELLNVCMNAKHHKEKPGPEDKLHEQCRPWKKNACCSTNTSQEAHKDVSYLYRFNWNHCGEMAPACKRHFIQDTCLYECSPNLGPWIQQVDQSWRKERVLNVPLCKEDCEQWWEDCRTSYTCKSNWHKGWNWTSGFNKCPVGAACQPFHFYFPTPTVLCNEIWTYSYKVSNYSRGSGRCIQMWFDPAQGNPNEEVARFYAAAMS

B1: HuRA15-7CTAcc antibody (antibody, human IgG1, V domains shown)
VH: EVQLVESGGGLVQPGGSLRLSCAASGFTFTDFYMNWVRQPPGKAPEWLGFIRNKANGYTTEFNPSVKGRFTISRDNSKNSLYLQMNSLKTEDTATYYCARTLYGYAYYYVMDAWGQGTLVTVSS
VL: DIQMTQSPSSLSASLGDRVTITCRTSEDIFRNLAWYQQKPGKAPKLLIYDTNRLADGVPSRFSGSGSGTDYTLTISSLQPEDFATYFCQQYDNYPLTFGQGTKLEIK
notes: Defucosylated, made in CHO/Ms704 cells; also called CDC enhancement technology-applied defucosylated HuRA15-7CT
As for B1, the binding result with Rat2-FOLR1-mycHis [1] was “no binding (tested: up to 10000 ng/mL)”; with Rat4-FOLR1-mycHis [3], “binds”. This molecule also showed a Kd with FOLR1-mycHis [2] of 0.65 nM. The molecule also registered an off-rate constant (koff) with FOLR1-mycHis [2] of 0.00108 s⁻¹.

B2: RA15-7 antibody (antibody, V domains shown)
VH: EVKLLESGGGLVQPGGSMRLSCAASGFTFTDFYMNWIRQPAGKAPEWLGFIRNKANGYTTEFNPSVKGRFAISRDNTQNMLYLQMNTLRAEDTATYYCARCLYGYAYYYVMDAWGQGTSVTVSS
VL: DIQMTQSPASLSASLGETVTIECRTSEDIFRNLAWYQQRPGNSPQLLIYDTNRLADGVPSRFSGSGSGTQYSLKINSLQSEDVAGYFCQQYDNYPLTFGSGTKLEIK
notes: also called antibody contained in the RA15-7 culture supernatant; culture supernatant of hybridoma RA15-7 clone
Take B2: the binding result in test [4] and in [5] was “binds” in each case. This molecule also showed a dissociation constant Kd with FOLR1-mycHis [6] of 1.9 nM.

B3: ChRA15-7Acc antibody (antibody, human IgG1, V domains shown)
VH: EVKLLESGGGLVQPGGSMRLSCAASGFTFTDFYMNWIRQPAGKAPEWLGFIRNKANGYTTEFNPSVKGRFAISRDNTQNMLYLQMNTLRAEDTATYYCARCLYGYAYYYVMDAWGQGTSVTVSS
VL: DIQMTQSPASLSASLGETVTIECRTSEDIFRNLAWYQQRPGNSPQLLIYDTNRLADGVPSRFSGSGSGTQYSLKINSLQSEDVAGYFCQQYDNYPLTFGSGTKLEIK
notes: Defucosylated, made in CHO/Ms704 cells; also called CDC enhancement technology-applied defucosylated ChRA15-7; rat/human chimeric RA15-7
For B3, the values for the binding result with Rat2-FOLR1-mycHis [7] and with Rat4-FOLR1-mycHis [8] were “no binding (tested: up to 10000 ng/mL)” and “binds”, respectively. Moreover, the Kd with FOLR1-mycHis [9] worked out at 0.57 nM. For the same molecule, the koff with FOLR1-mycHis [9] was 0.001 s⁻¹.

Broadly, the Kd is a measure of binding affinity in units of concentration. By koff is commonly meant the first-order rate constant of dissociation.
